Results on 54 compounds are retold here after PMC10648141, “Screening of Oral Potential Angiotensin-Converting Enzyme Inhibitory Peptides from Zizyphus jujuba Proteins Based on Gastrointestinal Digestion In Vivo” (International Journal of Molecular Sciences, 2023).

Several values for one entry are separate records, joined by “and”; a condition that tells them apart may be missing. Equal entries are not always repeated. Residues, ends and D or L forms follow the SMILES beside them. No end group written: not given here.

In the first data set the target is T1, ACE (Homo sapiens, UniProt P12821).
T1 construct: purchased Sigma-Aldrich
T1 sequence (P12821 30-1306, species assumed): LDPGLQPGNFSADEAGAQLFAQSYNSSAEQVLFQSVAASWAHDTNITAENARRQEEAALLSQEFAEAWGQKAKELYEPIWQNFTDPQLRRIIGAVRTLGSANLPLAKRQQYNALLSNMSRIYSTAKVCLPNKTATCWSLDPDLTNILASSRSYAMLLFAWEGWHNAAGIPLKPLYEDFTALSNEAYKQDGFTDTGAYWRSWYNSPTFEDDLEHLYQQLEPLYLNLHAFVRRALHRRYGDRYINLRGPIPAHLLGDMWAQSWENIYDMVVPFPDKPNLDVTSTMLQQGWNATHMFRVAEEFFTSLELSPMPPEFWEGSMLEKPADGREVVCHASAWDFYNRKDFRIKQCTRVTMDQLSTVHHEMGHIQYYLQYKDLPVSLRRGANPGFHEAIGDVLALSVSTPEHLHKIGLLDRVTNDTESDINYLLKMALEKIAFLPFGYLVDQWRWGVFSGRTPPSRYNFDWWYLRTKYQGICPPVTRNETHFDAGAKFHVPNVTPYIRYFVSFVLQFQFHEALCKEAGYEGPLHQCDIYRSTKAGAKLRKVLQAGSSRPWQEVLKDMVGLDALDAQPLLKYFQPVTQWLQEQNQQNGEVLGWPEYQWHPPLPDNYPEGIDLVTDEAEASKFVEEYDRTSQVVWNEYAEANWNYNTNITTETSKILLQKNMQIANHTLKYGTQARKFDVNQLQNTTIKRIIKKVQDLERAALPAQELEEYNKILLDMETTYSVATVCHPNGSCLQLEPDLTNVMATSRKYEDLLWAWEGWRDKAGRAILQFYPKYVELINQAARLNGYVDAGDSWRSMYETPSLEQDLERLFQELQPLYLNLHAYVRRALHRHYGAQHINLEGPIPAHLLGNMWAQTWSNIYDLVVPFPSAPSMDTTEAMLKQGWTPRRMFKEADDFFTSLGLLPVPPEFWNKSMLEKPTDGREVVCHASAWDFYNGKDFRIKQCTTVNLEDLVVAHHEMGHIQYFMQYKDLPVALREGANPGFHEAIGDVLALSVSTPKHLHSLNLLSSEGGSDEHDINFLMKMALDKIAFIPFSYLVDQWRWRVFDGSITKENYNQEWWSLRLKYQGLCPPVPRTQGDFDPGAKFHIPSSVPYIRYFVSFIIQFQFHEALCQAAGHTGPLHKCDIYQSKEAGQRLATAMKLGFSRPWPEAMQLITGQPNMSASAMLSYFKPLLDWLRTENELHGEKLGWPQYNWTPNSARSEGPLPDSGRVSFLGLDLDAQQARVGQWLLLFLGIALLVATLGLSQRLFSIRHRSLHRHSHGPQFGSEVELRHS
The data set can be described thus: ACE-inhibitory activity assay in vitro (HHL substrate, hippuric acid by HPLC). Type of data set: biochemical. Conditions: 1 h, pH 8.3, read-out: ACE Inhibition Rate (%) (2 mg/mL). The procedure: The method used to determine ACE-inhibitory activity was designed according to that of Sangsawad et al. with minor modifications. […] The reaction mixture comprised 50 μL of peptide and 50 μL of ACE (25 mU/mL), undergoing pre-incubation for 5 min at 37 °C. Subsequently, 150 μL of substrate (8.3 mM HHL in 0.1 M Tris-HCl buffer with 500 mM NaCl at pH 8.3) was introduced, and the sample was further incubated at 37 °C for 60 min. Following the completion of the reaction, it was terminated via the addition of 1 M HCl. […] IC50 was used to express the activity of hydrolysate; all analyses were carried out under five different concentrations in triplicate.
For `CC(C)C[C@H](NC(=O)[C@H](Cc1c[nH]cn1)NC(=O)[C@H](CC(C)C)NC(=O)[C@@H](N)Cc1ccc(O)cc1)C(=O)O` [YLHL] (H-YLHL-OH), the inhibition at 2000 µg/mL was found to be 65.4%.

Still in this data set, the particulars now being: 1 h; peptide 2 mg/mL; HHL substrate, pH 8.3, 37 °C, 60 min; HPLC of hippuric acid; read-out: ACE Inhibition Rate (%) (2 mg/mL).
Take `N=C(N)NCCC[C@H](NC(=O)[C@H](CCC(=O)O)NC(=O)[C@@H]1CCCN1)C(=O)N[C@@H](CCCCN)C(=O)O` [PERK] (H-PERK-OH): the inhibition at 2000 µg/mL stood at 4.5%.
`N=C(N)NCCC[C@H](NC(=O)[C@@H]1CCCN1C(=O)[C@H](Cc1ccccc1)NC(=O)[C@@H](N)CCCNC(=N)N)C(=O)O` [RFPR] (H-RFPR-OH): the inhibition at 2000 µg/mL was 22.9%.
In the case of KALVAP [KALVAP], the inhibition at 2000 µg/mL stood at 100%.
For KVKPL [KVKPL], the inhibition at 2000 µg/mL was -14.2%.
On the same count and under the same terms, then LEKLVT [LEKLVT], with 30.5%; and LEKPLL [LEKPLL], with 24.2%; and PRPKPPP [PRPKPPP], with 74.8%.
Consider RLPHV [RLPHV], for which the inhibition at 2000 µg/mL is 100%.
On to TVKPGL [TVKPGL], for which the inhibition at 2000 µg/mL is 100%.

The data set is the same for the next values; noted with them: HHL substrate, pH 8.3, 37 °C, 60 min; HPLC of hippuric acid; five concentrations in triplicate.
As for KALVAP [KALVAP], the half-inhibitory concentration (IC50) came to 17.1 µM.
With RLPHV [RLPHV], the IC50 is 3.81 µM and 6.01 µM.
Take TVKPGL [TVKPGL]: the half-maximal inhibitory concentration (IC50) was 6.01 µM and 3.81 µM.

Test system in the next data set: not listed separately
The data set can be described thus: Stability of peptides after simulated gastrointestinal digestion in vitro. It is filed as in vitro ADME. Conditions: pepsin (1000 U/mL) and pancreatin (50 U/mL); peptide 0.5 mg/mL; LC-MS (Q Exactive, ESI positive); peak area after/before digestion × 100. The protocol: The stability in vitro digestion followed the method we reported previously with minor modifications. Pepsin (1000 U/mL) and pancreatin (50 U/mL) were used to digest the peptide (0.5 mg/mL). A Q Exactive system (Thermo Fisher Scientific, USA) equipped with ESI in positive ion mode was used for mass spectrometric detection. Stability %=Peak area after digestion sample/Peak area before digestion sample×100%
With KALVAP [KALVAP], the “Simulated Gastrointestinal Digestion Stability %” value is 78%.
For RLPHV [RLPHV], the “Simulated Gastrointestinal Digestion Stability %” value is listed as 82%.
Regarding TVKPGL [TVKPGL], the “Simulated Gastrointestinal Digestion Stability %” value is 90%.

A further data set has as its target T1, ACE.
Assay: not given
On the set-up: method as in our group and the DFBP database. Conditions: ACE-inhibitory activity used as 3D-QSAR input (training set 34, test set 12 marked *); ref our group and the DFBP database; cited from earlier work.
On to “ADGLWL [ACEI peptide, 3D-QSAR training set]”, for which the PIC50 is recorded as -2.45.
On to AHSVRF [ACEI peptide, 3D-QSAR test set], for which the PIC50 is -1.26.
“AHSVRFY [ACEI peptide, 3D-QSAR test set]”: the PIC50 was -1.21.
Take “Ala-His-Ser-Val (AHSV) [ACEI peptide, 3D-QSAR training set]”: the PIC50 was -3.26.
Consider “Asp-Phe-Gly [ACEI peptide, 3D-QSAR training set]”, for which the PIC50 is recorded as -1.65.
With “CCNKSV (cysteine pairing not given here) [ACEI peptide, 3D-QSAR test set]”, the PIC50 was -1.18.
With “Cys-Cys-Asn-Lys (CCNK) [ACEI peptide, 3D-QSAR training set]”, the PIC50 is given as -0.95.
Regarding “FCLYELAR [ACEI peptide, 3D-QSAR training set]”, the PIC50 is given as -1.50.
With “FPEVFGK [ACEI peptide, 3D-QSAR training set]”, the PIC50 was -2.15.
Take “FQKVVAK [ACEI peptide, 3D-QSAR test set]”: the PIC50 is -0.32.
Turning to “GIPLPLI [ACEI peptide, 3D-QSAR training set]”, the PIC50 is -1.87.
For the compound “GKDAVIV [ACEI peptide, 3D-QSAR training set]”, the PIC50 was -1.26.
Turning to “GRVSNCAA [ACEI peptide, 3D-QSAR training set]”, the PIC50 is -1.76.
“GYALPHA [ACEI peptide, 3D-QSAR training set]”: the PIC50 is -1.44.
“Gln-Val-Gly-Pro (QVGP) [ACEI peptide, 3D-QSAR training set]”: the PIC50 is -2.21.
Regarding “His-Cys-His-Thr (HCHT) [ACEI peptide, 3D-QSAR training set]”, the PIC50 was -2.06.
For the compound “His-Cys-His-Thr-Asn (HCHTN) [ACEI peptide, 3D-QSAR test set]”, the PIC50 was -1.48.
On to “IGPGLGR [ACEI peptide, 3D-QSAR training set]”, for which the PIC50 is -2.32.
“IIAPPER [ACEI peptide, 3D-QSAR training set]”: the PIC50 is -0.94.
As to “KVREGTTY [ACEI peptide, 3D-QSAR training set]”, the PIC50 is on record as -2.01.
“LGPLGHQ [ACEI peptide, 3D-QSAR training set]”: the PIC50 is given as -0.63.
“LHPGDAQR [ACEI peptide, 3D-QSAR training set]”: the PIC50 is given as -1.01.
For “LPGVLPVA [ACEI peptide, 3D-QSAR test set]”, the PIC50 is reported as 0.11.
With “LPQNILP [ACEI peptide, 3D-QSAR test set]”, the PIC50 was -1.66.
For “LVLPGE [ACEI hexapeptide of the authors' previous studies; alignment template, training set]”, the PIC50 is listed as -1.13.
With “LVLPGELAK [ACEI peptide, 3D-QSAR training set]”, the PIC50 was -2.26.
In the case of “Leu-Ala-Lys [ACEI peptide, 3D-QSAR test set]”, the PIC50 is reported as -1.68.
With “Leu-Gln-Lys-Trp (LQKW) [ACEI peptide, 3D-QSAR test set]”, the PIC50 is -1.54.
As to “Leu-Phe-Arg-Gln (LFRQ) [ACEI peptide, 3D-QSAR test set]”, the PIC50 is -1.23.
“Leu-Val-Leu [ACEI peptide, 3D-QSAR training set]”: the PIC50 was -1.09.
Consider “Lys-Ser-Val [ACEI peptide, 3D-QSAR training set]”, for which the PIC50 is given as -3.01.
As to “NMAINPSK [ACEI peptide, 3D-QSAR training set]”, the PIC50 is recorded as -1.78.
For “PANIKWGD [ACEI peptide, 3D-QSAR training set]”, the PIC50 was -1.32.
Regarding “PTHIKWGD [ACEI peptide, 3D-QSAR training set]”, the PIC50 was -0.18.
In the case of “Phe-Pro-Gln-Tyr (FPQY) [ACEI peptide, 3D-QSAR training set]”, the PIC50 is reported as -2.48.
As to “Pro-Ser-Phe-Gln-Pro (PSFQP) [ACEI peptide, 3D-QSAR training set]”, the PIC50 was -1.86.
For the compound “Ser-Leu-Pro-Gln-Asn (SLPQN) [ACEI peptide, 3D-QSAR training set]”, the PIC50 was -0.98.
Take “TFQGPPHGIQVER [ACEI peptide, 3D-QSAR training set]”: the PIC50 was -0.53.
For TYLPVH [ACEI peptide, 3D-QSAR test set], the PIC50 is listed as -0.14.
For “Tyr-Pro-Gly [ACEI peptide, 3D-QSAR training set]”, the PIC50 is reported as -1.37.
In the case of “Tyr-Thr-Val-Phe (YTVF) [ACEI peptide, 3D-QSAR training set]”, the PIC50 is -1.94.
As for “Val-His-Leu-Pro-Pro (VHLPP) [ACEI peptide, 3D-QSAR test set]”, the PIC50 is recorded as -1.26.
For the compound “Val-Leu-Pro-Tyr-Pro (VLPYP) [ACEI peptide, 3D-QSAR training set]”, the PIC50 is on record as -1.56.
As for “YETGNGIK [ACEI peptide, 3D-QSAR training set]”, the PIC50 was -0.57.
